The results in this text go back to PMC3879356.

For this experiment, the target named is cytosolic domain of CAML (CAMLcyt), GST-tagged. Briefly: SPR; WRBcc or CAMLcyt immobilised on a HC1000m sensorchip (Reichert SR7000DC); analyte TRC40wt or TRC40wt/RAMP4 in PBS, 15°C, 40 µl/min, injected 270 s, dissociation 12 min; average of three independent measurements.

pKd: −log10 of the molar value.

Sequence of TRC40/RAMP4 complex (MBP-TRC40/HZZ-RAMP4op protein complex) (O43681 whole entry): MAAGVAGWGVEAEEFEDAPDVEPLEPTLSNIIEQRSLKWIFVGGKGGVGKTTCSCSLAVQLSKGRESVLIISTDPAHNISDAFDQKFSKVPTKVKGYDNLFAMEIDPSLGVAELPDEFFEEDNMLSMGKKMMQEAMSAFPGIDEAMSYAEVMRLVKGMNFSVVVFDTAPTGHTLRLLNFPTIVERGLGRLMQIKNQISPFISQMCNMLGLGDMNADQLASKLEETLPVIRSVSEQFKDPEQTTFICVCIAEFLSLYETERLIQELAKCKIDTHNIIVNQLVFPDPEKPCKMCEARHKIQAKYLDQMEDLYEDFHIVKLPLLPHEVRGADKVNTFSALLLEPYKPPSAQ
Sequence of TRC40/RAMP4 complex (MBP-TRC40/HZZ-RAMP4op protein complex) (Q9Y6X1 whole entry): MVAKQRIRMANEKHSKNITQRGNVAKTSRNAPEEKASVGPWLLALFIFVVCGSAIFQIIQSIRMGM

The substance “TRC40/RAMP4 complex (MBP-TRC40/HZZ-RAMP4op protein complex) (from UniProt O43681 1-348; Q9Y6X1 1-66)” gave a pKd of 7.47.
